Assay results taken from the supplement of paper PMC10567573.

B1: DVL3 (parent)
chain: SDVVDWLYHNVEGFTDRREARKYA

Variants of: B1
Assay: protein stability index of a GFP-peptide fusion (GPS, HEK-293T) (PSI 1-6); higher = more stable
Settings: c terminus: a fixed tail appended
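Also: lentivirally expressed fusions sorted by FACS into six bins by GFP to DsRed ratio, PSI derived from sequencing read proportions per bin multiplied by bin number.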

Q: With SDVVDWLYHNVEGFTDRREARIYA as the variant, how does the protein stability index read?
A: 2.85

Q: For SDVVDWLYHNVEGFTDRREARQYA, which protein stability index is on record?
A: 2.81

Q: For SDVVDWLYHNVEGFTDRREAREYA, which protein stability index is on record?
A: 3.24

Q: For SDVVDWLYHNVEGFTDRREARHYA, which protein stability index is on record?
A: 3

Q: With SDVVDWLYHNVEGFTDRREARSYA as the variant, how does the protein stability index read?
A: 3.31

Q: With SDVVDWLYHNVEGFTDRREARMYA as the variant, how does the protein stability index read?
A: 2.06

Q: For SDVVDWLYHNVEGFTDRREARLYA, which protein stability index is on record?
A: 2.19

Q: For SDVVDWLYHNVEGFTDRREARDYA, which protein stability index is on record?
A: 2.89

Q: With SDVVDWLYHNVEGFTDRREARTYA as the variant, how does the protein stability index read?
A: 2.95

Q: With SDVVDWLYHNVEGFTDRREARCYA as the variant, how does the protein stability index read?
A: 2.13

Q: With SDVVDWLYHNVEGFTDRREARWYA as the variant, how does the protein stability index read?
A: 2.06

Q: Which protein stability index does the source give for SDVVDWLYHNVEGFTDRREARVYA here?
A: 2.36

Q: Which protein stability index does the source give for SDVVDWLYHNVEGFTDRREARPYA here?
A: 3.31

Q: Which protein stability index does the source give for SDVVDWLYHNVEGFTDRREARAYA here?
A: 2.73

Q: Which protein stability index does the source give for SDVVDWLYHNVEGFTDRREARFYA here?
A: 1.83

Q: For SDVVDWLYHNVEGFTDRREARYYA, which protein stability index is on record?
A: 1.96

Q: Which protein stability index does the source give for SDVVDWLYHNVEGFTDRREARRYA here?
A: 2.29

Q: Which protein stability index does the source give for SDVVDWLYHNVEGFTDRREARGYA here?
A: 2.68

Q: With SDVVDWLYHNVEGFTDRREARNYA as the variant, how does the protein stability index read?
A: 3.45

Q: For SDVVDWLYHNVEGFTDRREARKNA, which protein stability index is on record?
A: 4.05

Q: With SDVVDWLYHNVEGFTDRREARKVA as the variant, how does the protein stability index read?
A: 3.6

Q: For SDVVDWLYHNVEGFTDRREARKRA, which protein stability index is on record?
A: 4.18

Q: Which protein stability index does the source give for SDVVDWLYHNVEGFTDRREARKHA here?
A: 3.73

Q: Which protein stability index does the source give for SDVVDWLYHNVEGFTDRREARKEA here?
A: 3.97

Q: For SDVVDWLYHNVEGFTDRREARKTA, which protein stability index is on record?
A: 3.55

Q: For SDVVDWLYHNVEGFTDRREARKKA, which protein stability index is on record?
A: 3.83

Q: Which protein stability index does the source give for SDVVDWLYHNVEGFTDRREARKFA here?
A: 3.17

Q: Which protein stability index does the source give for SDVVDWLYHNVEGFTDRREARKDA here?
A: 3.95

Q: Which protein stability index does the source give for SDVVDWLYHNVEGFTDRREARKLA here?
A: 3.15

Q: With SDVVDWLYHNVEGFTDRREARKCA as the variant, how does the protein stability index read?
A: 3.69

Q: With SDVVDWLYHNVEGFTDRREARKAA as the variant, how does the protein stability index read?
A: 4.21

Q: For SDVVDWLYHNVEGFTDRREARKGA, which protein stability index is on record?
A: 4.05

Q: Which protein stability index does the source give for SDVVDWLYHNVEGFTDRREARKIA here?
A: 2.82

Q: Which protein stability index does the source give for SDVVDWLYHNVEGFTDRREARKPA here?
A: 3.97

Q: With SDVVDWLYHNVEGFTDRREARKWA as the variant, how does the protein stability index read?
A: 2.75

Q: Which protein stability index does the source give for SDVVDWLYHNVEGFTDRREARKSA here?
A: 4.11

Q: With SDVVDWLYHNVEGFTDPREARKYA as the variant, how does the protein stability index read?
A: 3.33

Q: For SDVVDWLYHNVEGFTDLREARKYA, which protein stability index is on record?
A: 2.69

Q: Which protein stability index does the source give for SDVVDWLYHNVEGFTDVREARKYA here?
A: 2.37

Q: With SDVVDWLYHNVEGFTDHREARKYA as the variant, how does the protein stability index read?
A: 4.21

Q: Which protein stability index does the source give for SDVVDWLYHNVEGFTDKREARKYA here?
A: 3.7

Q: Which protein stability index does the source give for SDVVDWLYHNVEGFTDNREARKYA here?
A: 2.65

Q: Which protein stability index does the source give for SDVVDWLYHNVEGFTDSREARKYA here?
A: 3.9

Q: For SDVVDWLYHNVEGFTDMREARKYA, which protein stability index is on record?
A: 2.63

Q: For SDVVDWLYHNVEGFTDIREARKYA, which protein stability index is on record?
A: 1.82

Q: For SDVVDWLYHNVEGFTDQREARKYA, which protein stability index is on record?
A: 3.67

Q: For SDVVDWLYHNVEGFTDYREARKYA, which protein stability index is on record?
A: 2.45

Q: For SDVVDWLYHNVEGFTDWREARKYA, which protein stability index is on record?
A: 2

Q: Which protein stability index does the source give for SDVVDWLYHNVEGFTDTREARKYA here?
A: 3.09

Q: Which protein stability index does the source give for SDVVDWLYHNVEGFTDRREARKYV here?
A: 2.74

Q: Which protein stability index does the source give for SDVVDWLYHNVEGFTDRREARKYK here?
A: 3.12

Q: Which protein stability index does the source give for SDVVDWLYHNVEGFTDRREARKYY here?
A: 2.99

Q: For SDVVDWLYHNVEGFTDRREARKYR, which protein stability index is on record?
A: 3.11

Q: With SDVVDWLYHNVEGFTDRREARKYD as the variant, how does the protein stability index read?
A: 4.05

Q: With SDVVDWLYHNVEGFTDRREARKYL as the variant, how does the protein stability index read?
A: 2.66

Q: With SDVVDWLYHNVEGFTDRREARKYE as the variant, how does the protein stability index read?
A: 2.62

Q: With SDVVDWLYHNVEGFTDRREARKYQ as the variant, how does the protein stability index read?
A: 3.71

Q: Which protein stability index does the source give for SDVVDWLYHNVEGFTDRREARKYN here?
A: 3.62

Q: Which protein stability index does the source give for SDVVDWLYHNVEGFTDRREARKYM here?
A: 2.68

Q: With SDVVDWLYHNVEGFTDRREARKYI as the variant, how does the protein stability index read?
A: 1.95

Q: Which protein stability index does the source give for SDVVDWLYHNVEGFTDRREARKYP here?
A: 3.42

Q: Which protein stability index does the source give for SDVVDWLYHNVEGFTDRREARKYF here?
A: 2.82

Q: For SDVVDWLYHNVEGFTDRREARKYH, which protein stability index is on record?
A: 3.34

Q: Which protein stability index does the source give for SDVVDWLYHNVEGFTDRREARKYT here?
A: 2.79

Q: Which protein stability index does the source give for SDVVDWLYHNVEGFTDRREARKYC here?
A: 3.45

Q: Which protein stability index does the source give for SDVVDWLYHNVEGFTDRREARKYW here?
A: 1.09

Q: With SDVVDWLYHNVEGFTDRREGRKYA as the variant, how does the protein stability index read?
A: 4.09

Q: For SDVVDWLYHNVEGFTDRREDRKYA, which protein stability index is on record?
A: 3.1

Q: Which protein stability index does the source give for SDVVDWLYHNVEGFTDRREYRKYA here?
A: 2.34

Q: With SDVVDWLYHNVEGFTDRREERKYA as the variant, how does the protein stability index read?
A: 3.5

Q: Which protein stability index does the source give for SDVVDWLYHNVEGFTDRREKRKYA here?
A: 2.56

Q: With SDVVDWLYHNVEGFTDRREIRKYA as the variant, how does the protein stability index read?
A: 1.98

Q: With SDVVDWLYHNVEGFTDRRELRKYA as the variant, how does the protein stability index read?
A: 2.34

Q: With SDVVDWLYHNVEGFTDRREHRKYA as the variant, how does the protein stability index read?
A: 3.02

Q: With SDVVDWLYHNVEGFTDRRERRKYA as the variant, how does the protein stability index read?
A: 3.15

Q: With SDVVDWLYHNVEGFTDRREMRKYA as the variant, how does the protein stability index read?
A: 3.28

Q: Which protein stability index does the source give for SDVVDWLYHNVEGFTDRRECRKYA here?
A: 2.73

Q: For SDVVDWLYHNVEGFTDRRETRKYA, which protein stability index is on record?
A: 3.16

Q: With SDVVDWLYHNVEGFTDRREFRKYA as the variant, how does the protein stability index read?
A: 2.28

Q: Which protein stability index does the source give for SDVVDWLYHNVEGFTDRREVRKYA here?
A: 1.83

Q: For SDVVDWLYHNVEGFTDRRENRKYA, which protein stability index is on record?
A: 2.96

Q: For SDVVDWLYHNVEGFTDRRESRKYA, which protein stability index is on record?
A: 3.43

Q: Which protein stability index does the source give for SDVVDWLYHNVEGFTDRREWRKYA here?
A: 2.18

Q: Which protein stability index does the source give for SDVVDWLYHNVEGFTDRREQRKYA here?
A: 2.69

Q: Which protein stability index does the source give for SDVVDWLYHNVEGFTDRREPRKYA here?
A: 4.29

Q: Which protein stability index does the source give for SDVVDWLYHNVEGFTDRRAARKYA here?
A: 2.54

Q: With SDVVDWLYHNVEGFTDRRWARKYA as the variant, how does the protein stability index read?
A: 1.82

Q: For SDVVDWLYHNVEGFTDRRSARKYA, which protein stability index is on record?
A: 2.73

Q: With SDVVDWLYHNVEGFTDRRIARKYA as the variant, how does the protein stability index read?
A: 2.25

Q: With SDVVDWLYHNVEGFTDRRPARKYA as the variant, how does the protein stability index read?
A: 2.85

Q: Which protein stability index does the source give for SDVVDWLYHNVEGFTDRRCARKYA here?
A: 2.38

Q: For SDVVDWLYHNVEGFTDRRMARKYA, which protein stability index is on record?
A: 2.67

Q: For SDVVDWLYHNVEGFTDRRTARKYA, which protein stability index is on record?
A: 2.64

Q: For SDVVDWLYHNVEGFTDRRKARKYA, which protein stability index is on record?
A: 2.33
